Measurements as given in patent publication US20180280504A1, “GLYCAN-INTERACTING COMPOUNDS AND METHODS OF USE” (SIAMAB THERAPEUTICS, INC., priority 2014, published 2018).

What was measured:
[1] = Glycan array, 9-O-acetylated AcSTn; type: binding; settings: glycan microarray, Cy3 anti-mouse IgG
Protocol: (§1) Optimized glycan arrays comprise 71 chemically synthesized and well-defined glycans, most of which comprise Neu5Ac and Neu5Gc glycan pairs.
(§2) 300 ml of epoxy blocking buffer is prepared by combining 15 ml of 2 M Tris buffer (pH 8) with 0.9 ml of 16.6 M ethanolamine and 284.1 ml of distilled water. The solution was brought to a final pH of 9.0 with HCl. The solution is filtered using a 0.2 μM nitrocellulose membrane. The epoxy buffer solution as well as 1 L of distilled water are pre-warmed to 50° C. Glass slides are arranged in a slide holder and quickly submerged in a staining tub with the warmed epoxy blocking buffer. Slides are incubated in the epoxy blocking buffer for 1 hour at 50° C. with periodic shaking to deactivate epoxy binding sites. Next, slides are rinsed and blocked with PBS with 1% OVA at 25° C. for one hour. Serum samples with polyclonal antibodies (1:1000) or purified monoclonal antibodies (1 ug/mL), are diluted in PBS with 1% OVA and added to the glycan array for one hour at 25° C. After extensive washing, binding of antibodies are detected by incubating glycan microarray slides with Cy3-conjugated anti-mouse IgG (Jackson Immunoresearch, West Grove, Pa.) for one hour. Slides are then washed extensively, dried and scanned with a Genepix 4000B scanner (Laser at 100%; gain at 350; 10 μm pixels). […]

[2] = Glycan array, 9-O-acetylated GcSTn; type: binding; settings: glycan microarray, Cy3 anti-mouse IgG
Protocol: as §1, §2

[3] = E3-STn allograft model, second round study, average body weight
Protocol: 50 female Balb/cmice were inoculated with E3-STn cells to cause STn-expressing tumor formation when they were 5 weeks old. Mice were housed in individually ventilated microisolator cages, and maintained under pathogen-free conditions with irradiated feed and autoclaved water. […] Beginning on the first day of the study, body weight and tumor volumes were recorded twice weekly. 33 mice with mean tumor volume between 100 and 150 mm^3 were selected for randomization.
The average weight of mice in each treatment group was also determined on days 1, 5, 8, 12, 15,19, 22, 26, 29, 33, 36, 40, 43, 47 and 50 following the first administration of each test article (see the following Table). The percent gain or loss over initial weight values is listed in parentheses.

E3-STn tumors = assay: E3-STn murine breast tumor allograft model, tumor volume; type: in vivo, mouse; settings: for Average Tumor Volume (mm^3): 7G9-1A8 25 mg/kg i.p. twice weekly for 3 weeks, Paclitaxel daily for 5 days
Protocol: 3 test articles were evaluated during the study.
Standard deviation values are listed in parenthesis.

[4] = tested on: MDA-MB-231-STn Human Breast Tumor Xenograft; assay: MDA-MB-231-STn xenograft model, clinical observations of tumors; type: in vivo, mouse; settings: 5 mg/kg i.p. once weekly
Protocol: (§3) Animals were inoculated in the subcutaneous right flank with 5×10^6 breast tumor cells (MDA-MB-231-STn) in matrigel, mean tumor size was 175-225 mm^3 at study initiation. Animals were given either vehicle or antibody drug conjugates (5 mg/kg) by intraperitoneal injection once weekly. Tumor volume and percent body weight change were determined once weekly until study termination. The study was terminated when the tumor in the vehicle control animal reached a mean tumor weight ≥1500 mm^3. SE refers to “standard error.”
Clinical observations of tumor shape, size and disposition were noted throughout the study.

[5] = tested on: MDA-MB-231-STn Human Breast Tumor Xenograft; assay: MDA-MB-231-STn human breast cancer xenograft model, tumor volume; type: in vivo, mouse; settings: 5 mg/kg i.p. once weekly
Text: To evaluate antibody drug conjugates (ADCs) as single agents in an MDA-MB-231-STn Human Breast Tumor Xenograft model, 40 ICR SCID female mice age range 6-8 weeks were randomly separated into four separate groups, one vehicle control and three ADC treatments, then maintained individually with food/water ad libitum (see the following Table).
as §3

MDA-MD-231 STn+ cells = assay: Fluorescence microscopy of ALEXA FLUOR 488-S3F binding and internalization, STn+ cells; type: cell-based, human
Protocol: To analyze the internalization of antibodies by fluorescence microscopy, the following procedure was carried out. MDA-MD-231 STn− cells and MDA-MD-231 STn+ cells were cultured in Eagles minimum essential medium containing 10% fetal calf serum, 100 μg/ml penicillin, 100 UI/ml streptomycin, 45 μg/ml gentamycin, as well as 1 mg/ml G418 for STn+ cells. Cells were sub-cultured by treatment with Accutase buffer and seeded in microscope chamber slides at 10,000 cells/chamber in the case of STn− cells and 20,000 cells/chamber in the case of STn+ cells. All cells were cultured overnight at 37° C. Cells were subsequently incubated with either 1.5, 5 or 10 μg/ml S3F conjugated with ALEXA FLUOR® 488 dye (Thermo Fisher Scientific, Pittsburgh, Pa.) in complete media at 4° C. for 1 hour. Cells were then washed with ice-cold PBS in order to remove antibodies that were not bound to the cell surface. Complete media was then administered to each chamber and the cells were incubated at 37° C. for either 0, 15, 30 or 60 minutes in order to allow internalization of any surface-bound antibodies.
Following each time point, cells were washed twice with PBS in order to remove unbound antibodies. […] Cells were visualized the following day by analysis on a Nikon Eclipse Ti fluorescence microscope.

B1: 18C7: anti-STn mouse monoclonal, IgG2c κ, from mouse #4436; VH SEQ ID NO: 4, VL SEQ ID NO: 5 (antibody, V domains shown)
VH: QVTLKESGPGILQPSQTLSLTCSFSGFSLSTFGMGVGWIRQPSGKGLEWLAHIWWDDDKYYNPALKSRLTISKDTSKNQVFLKIANVDTADTATYYCARIAYYYGSERDYWGQGTTLTVSS
VL: QIVLTQSPAIMSASPGEKVTMTCSASSSISYMHWYHQKPGTSPKRWIYDTSKLASGVPARFSGSGSGTSYSLTISSMEAEDAATYYCHQRSSYTFGGGTKLEIKR
[1]
  mean fluorescence intensity, Neu5,9Ac2-α2,6-GalNAc: about 4,500
[2]
  mean fluorescence intensity, Neu5,9Ac5Gc-α2,6-GalNAc: about 2,000

B2: 7G9: anti-STn mouse monoclonal, IgG2b κ, from mouse #4407; VH SEQ ID NO: 12, VL SEQ ID NO: 9 (antibody, V domains shown)
VH: QVQLKESGPGLVAPSQNLSITCTVSGFSLTSYGVNWVRQPPGKGLEWLGVIWGDGSTNYHSALISRLIISKENSKSQVFLKLNSLQTNDTATYYCTKGFVYWGQGTLVTVSA
VL: QIVLTQSPAIMSASPGEKVTMTCSASSSVSYMHWYQQKSGTSPKRWIFDTSKLASGVPARFSGSGSGTSYSLTISSMEAEDAATYYCQQWSSNLLTFGAGTKLELK
[3]; day 1 of study
  Average Weight: 18.3 g
[3]; day 5 of study
  Average Weight: 18.7 g
  percent gain or loss over initial weight: (2.4) %
[3]; day 8 of study
  Average Weight: 19.4 g
  percent gain or loss over initial weight: (6.5) %
[3]; day 12 of study
  Average Weight: 20.1 g
  percent gain or loss over initial weight: (10.1) %
[3]; day 15 of study
  Average Weight: 20.4 g
  percent gain or loss over initial weight: (12.0) %
[3]; day 19 of study
  Average Weight: 20.9 g
  percent gain or loss over initial weight: (14.3) %
[3]; day 22 of study
  Average Weight: 20.8 g
  percent gain or loss over initial weight: (14.1) %
[3]; day 26 of study
  Average Weight: 21.5 g
  percent gain or loss over initial weight: (17.8) %
[3]; day 29 of study
  Average Weight: 22.1 g
  percent gain or loss over initial weight: (21.1) %
[3]; day 33 of study
  Average Weight: 22.2 g
  percent gain or loss over initial weight: (21.4) %
[3]; day 36 of study
  Average Weight: 22.1 g
  percent gain or loss over initial weight: (21.0) %
[3]; day 40 of study
  Average Weight: 22.8 g
  percent gain or loss over initial weight: (25.0) %
[3]; day 43 of study
  Average Weight: 22.9 g
  percent gain or loss over initial weight: (25.4) %
[3]; day 47 of study
  Average Weight: 22.8 g
  percent gain or loss over initial weight: (25.0) %
[3]; day 50 of study
  Average Weight: 23.8 g
  percent gain or loss over initial weight: (30.2) %
[3]; second round study
  percent gain in weight as compared to vehicle control: higher percent gain in weight
E3-STn tumors; 25 mg/kg i.p. twice weekly for 3 weeks
  average tumor volumes as compared to Paclitaxel and vehicle control: greatly reduced
E3-STn tumors; day 1
  Average Tumor Volume (mm^3): 112.4 mm^3
E3-STn tumors; day 4
  Average Tumor Volume (mm^3): 148.7 mm^3
E3-STn tumors; day 6
  Average Tumor Volume (mm^3): 161.9 mm^3
E3-STn tumors; day 8
  Average Tumor Volume (mm^3): 152.8 mm^3
E3-STn tumors; day 11
  Average Tumor Volume (mm^3): 136.3 mm^3
E3-STn tumors; day 13
  Average Tumor Volume (mm^3): 118.4 mm^3
E3-STn tumors; day 15
  Average Tumor Volume (mm^3): 105.1 mm^3
E3-STn tumors; day 18
  Average Tumor Volume (mm^3): 99.5 mm^3
E3-STn tumors; day 20
  Average Tumor Volume (mm^3): 91.7 mm^3
E3-STn tumors; day 22
  Average Tumor Volume (mm^3): 105.2 mm^3
E3-STn tumors; day 26
  Average Tumor Volume (mm^3): 102.8 mm^3
E3-STn tumors; day 27
  Average Tumor Volume (mm^3): 107.4 mm^3
E3-STn tumors; day 29
  Average Tumor Volume (mm^3): 147.1 mm^3
E3-STn tumors; day 32
  Average Tumor Volume (mm^3): 160.6 mm^3
E3-STn tumors; day 34
  Average Tumor Volume (mm^3): 164.7 mm^3
E3-STn tumors; day 36
  Average Tumor Volume (mm^3): 212.1 mm^3
E3-STn tumors; day 39
  Average Tumor Volume (mm^3): 206.6 mm^3
E3-STn tumors; day 41
  Average Tumor Volume (mm^3): 235.3 mm^3

B3: S3F: 3F1 variable domains combined with IgG2a constant domains; heavy chain SEQ ID NO: 63, light chain SEQ ID NO: 64 (antibody)
heavy: QVQLQQSDAELVKPGASVKISCKASGYTFTDHAIHWVKQKPEQGLDWIGYISPGNGDIKYNEKFKDKVTLTADKSSSTACMHLNSLTSEDSAVYFCKRSLLALDYWGQGTTLTVSSAKTTAPSVYPLAPVCGDTTGSSVTLGCLVKGYFPEPVTLTWNSGSLSSGVHTFPAVLQSDLYTLSSSVTVTSSTWPSQSITCNVAHPASSTKVDKKIEPRGPTIKPCPPCKCPAPNLLGGPSVFIFPPKIKDVLMISLSPIVTCVVVDVSEDDPDVQISWFVNNVEVHTAQTQTHREDYNSTLRVVSALPIQHQDWMSGKEFKCKVNNKDLPAPIERTISKPKGSVRAPQVYVLPPPEEEMTKKQVTLTCMVTDFMPEDIYVEWTNNGKTELNYKNTEPVLDSDGSYFMYSKLRVEKKNWVERNSYSCSVVHEGLHNHHTTKSFSRTPGK
light: DIVMTQSHKFMSTSVGDRVSITCKASQDVGTNIAWYQQKPGRSPKVLIYSASTRHTGVPDRFTGSGSGTDFTLTISNVQSEDLTDYFCQQYSSFPLTFGVGTKLELKRADAAPTVSIFPPSSEQLTSGGASVVCFLNNFYPKDINVKWKIDGSERQNGVLNSWTDQDSKDSTYSMSSTLTLTKDEYERHNSYTCEATHKTSTSPIVKSFNRNEC
[4]
  clinical observations of tumor shape, size and disposition: fewer severe tumors with fluid secretion
[5]; ICR SCID mice
  total tumor volume course: increased at all time points
[5]; day 1
  Tumor Volume: 178.6 mm^3
[5]; day 4
  Tumor Volume: 194.3 mm^3
[5]; day 8
  Tumor Volume: 244.9 mm^3
[5]; day 10
  Tumor Volume: 301.0 mm^3
[5]; day 15
  Tumor Volume: 445.1 mm^3
[5]; day 18
  Tumor Volume: 609.7 mm^3
[5]; day 23
  Tumor Volume: 775.4 mm^3
[5]; day 25
  Tumor Volume: 972.7 mm^3
MDA-MD-231 STn+ cells; 37° C. 15-60 min, acid wash
  internalization by STn+ cells: capable of being internalized by STn+ cells
MDA-MD-231 STn+ cells; 488-S3F conjugate at 1.5, 5, 10 μg/ml, 4° C.
  binding to the surface of STn+ cells: binds the surface of STn+ cells
